Laboratory results: article PMC9106297, “Structure of a TRAPPII-Rab11 activation intermediate reveals GTPase substrate selection mechanisms” (Science Advances, 2022)

How the values were obtained:
Assay in all cases: cryo-EM structure; TRAPPII purified from yeast, incubated with tenfold molar excess of Rab11/Ypt32-7xHis and calf intestine alkaline phosphatase at 4°C overnight (nucleotide-free Rab), complex purified on Calmodulin Sepharose and by SEC; 10 mM tris (pH 8.0), 150 mM NaCl, 0.1% CHAPS, 1 mM Mg acetate, 1 mM dithiothreitol; single-particle cryo-EM
Conditions in all cases: both partners purified
[1] = target: T1, Trs33 (TRAPP core subunit, in purified TRAPPII) (S. cerevisiae, UniProt Q99394 1-268)
T1 construct: Trs33, S. cerevisiae, endogenous; source: endogenous, purified from S. cerevisiae as a subunit of TRAPPII
T1 sequence (looked up): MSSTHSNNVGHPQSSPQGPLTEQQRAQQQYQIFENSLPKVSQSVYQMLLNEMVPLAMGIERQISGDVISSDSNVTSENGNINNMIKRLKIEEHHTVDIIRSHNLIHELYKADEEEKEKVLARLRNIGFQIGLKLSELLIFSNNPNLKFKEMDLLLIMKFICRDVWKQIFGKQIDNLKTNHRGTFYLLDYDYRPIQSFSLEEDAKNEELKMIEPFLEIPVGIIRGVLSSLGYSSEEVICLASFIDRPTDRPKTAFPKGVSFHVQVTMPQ

[2] = target: T2, Bet3 (TRAPP core subunit, in purified TRAPPII) (S. cerevisiae, UniProt P36149 1-193)
T2 construct: Bet3, S. cerevisiae, endogenous; source: endogenous, purified from S. cerevisiae as a subunit of TRAPPII
T2 sequence (looked up): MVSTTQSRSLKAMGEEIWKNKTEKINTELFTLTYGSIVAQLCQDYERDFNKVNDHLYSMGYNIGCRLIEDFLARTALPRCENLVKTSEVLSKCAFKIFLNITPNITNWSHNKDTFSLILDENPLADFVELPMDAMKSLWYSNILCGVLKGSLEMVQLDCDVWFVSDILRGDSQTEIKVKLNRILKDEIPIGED

[3] = target: T3, Trs130 (TRAPPII-specific subunit, in purified TRAPPII) (S. cerevisiae, UniProt Q03660 1-1102)
T3 construct: Trs130, S. cerevisiae, endogenous copy tagged at the C terminus; source: endogenous, purified from S. cerevisiae as a subunit of TRAPPII; not shown: held on Calmodulin Sepharose), C-terminal, kept
T3 sequence (looked up): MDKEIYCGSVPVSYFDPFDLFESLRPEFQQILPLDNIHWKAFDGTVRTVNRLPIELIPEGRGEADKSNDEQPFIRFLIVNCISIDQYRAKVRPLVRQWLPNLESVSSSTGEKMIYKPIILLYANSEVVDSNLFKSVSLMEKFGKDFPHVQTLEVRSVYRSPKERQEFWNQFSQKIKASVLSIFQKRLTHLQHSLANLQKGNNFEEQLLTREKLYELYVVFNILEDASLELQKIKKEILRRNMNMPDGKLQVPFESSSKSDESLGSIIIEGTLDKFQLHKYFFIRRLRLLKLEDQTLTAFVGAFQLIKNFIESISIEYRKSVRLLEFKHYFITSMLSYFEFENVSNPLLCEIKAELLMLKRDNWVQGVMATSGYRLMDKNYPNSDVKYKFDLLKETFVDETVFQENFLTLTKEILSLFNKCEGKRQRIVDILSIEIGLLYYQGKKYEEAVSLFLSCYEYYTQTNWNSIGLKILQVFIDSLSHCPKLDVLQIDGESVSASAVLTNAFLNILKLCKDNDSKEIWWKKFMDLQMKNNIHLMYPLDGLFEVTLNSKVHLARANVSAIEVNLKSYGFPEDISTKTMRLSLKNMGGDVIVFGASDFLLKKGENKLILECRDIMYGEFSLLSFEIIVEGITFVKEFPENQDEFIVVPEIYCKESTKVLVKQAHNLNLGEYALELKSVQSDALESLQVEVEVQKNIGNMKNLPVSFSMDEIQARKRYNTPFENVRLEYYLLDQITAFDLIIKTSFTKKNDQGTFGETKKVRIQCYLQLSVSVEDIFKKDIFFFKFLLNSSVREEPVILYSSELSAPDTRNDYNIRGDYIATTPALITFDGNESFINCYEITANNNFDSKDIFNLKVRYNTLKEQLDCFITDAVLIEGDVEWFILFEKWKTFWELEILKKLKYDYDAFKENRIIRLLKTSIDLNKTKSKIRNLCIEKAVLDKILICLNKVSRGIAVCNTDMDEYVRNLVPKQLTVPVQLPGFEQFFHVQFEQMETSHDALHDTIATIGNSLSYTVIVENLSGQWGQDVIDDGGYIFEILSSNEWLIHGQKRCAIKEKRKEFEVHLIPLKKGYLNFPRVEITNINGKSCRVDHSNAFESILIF

Measured: binding result

B1: Tca17 (TRAPPII subunit, in purified TRAPPII) (natural protein, S. cerevisiae, UniProt P32613 1-152, looked up)
chain: MSLRPCFVSLIDESDKPILIYVPNEAENEMNDVLKYNVLSNISLDYFESALVEWHSLDSKPLLKSIFQLEGVSVFAMLIKQTGLKIVIGFEQKSLSGADDEFEAINQIFETVRKIYIRVKCNPLLVSGDEKSIIKSLERKFDELFISTEVEL
notes: Tca17, S. cerevisiae, endogenous; source: endogenous, purified from S. cerevisiae as a subunit of TRAPPII
binds: all assays above
